Results: patent US20020193571A1 (published 2002)

B1: agonist antibody clone #3 scFv (scFv)
scFv: EVQLVQSGAEVKKPGASVKVSCKASGYTFTGYYMYWVRQAPGQGLEWMGWINPNSGGTNYAQKFQGRVTMTRDTSIGTAYMELSRLSSDDTAVYYCARDRYYGSSAYHRGSYYMDVWGRGTLVTVSSGGGGTGGGGSGGGGSSELTQDPAVSVALGQTVRITCQGDSLRSYYASWYQQKPGQAPVLVIYGKNNRPSGIPDRFSGSSSGNTASLTITGAQAEDEADYYCNSRDSSGNHVVFGGGTKLTVL
notes: Human scFv from a phage library
B2: agonist antibody clone #17 scFv (scFv)
scFv: QVRLQQSGGGLVQPGRSLRLSCAASGFTFDDYAMHWVRQAPGKGLEWVSGMTWNSGSIGYADSVKGRFTISRDNAKNSLYLQMNSLRAEDTAVYYCAREPHNTDAFDIWGRGTLVTVSSGGGGPGGGGSGGGGSDVVMTQSPSFLSAFVGDTITITCRASQGIYNYLAWYQQKPGKAPKLLIYAASTLQSGVPSRFSGSGSGTEFTLTISSLQPEDFGTYYCQQLISYPLTFGGGTKVEIK
notes: Human scFv from a phage library; tested as scFv phage and as soluble scFv

Biological target: T1, human WSX receptor (hWSXR), antigen of the phage antigen-binding ELISA (human, UniProt P48357 22-841)
T1 construct: both panning antigens hold the ECD; also called huWSXR
T1 sequence: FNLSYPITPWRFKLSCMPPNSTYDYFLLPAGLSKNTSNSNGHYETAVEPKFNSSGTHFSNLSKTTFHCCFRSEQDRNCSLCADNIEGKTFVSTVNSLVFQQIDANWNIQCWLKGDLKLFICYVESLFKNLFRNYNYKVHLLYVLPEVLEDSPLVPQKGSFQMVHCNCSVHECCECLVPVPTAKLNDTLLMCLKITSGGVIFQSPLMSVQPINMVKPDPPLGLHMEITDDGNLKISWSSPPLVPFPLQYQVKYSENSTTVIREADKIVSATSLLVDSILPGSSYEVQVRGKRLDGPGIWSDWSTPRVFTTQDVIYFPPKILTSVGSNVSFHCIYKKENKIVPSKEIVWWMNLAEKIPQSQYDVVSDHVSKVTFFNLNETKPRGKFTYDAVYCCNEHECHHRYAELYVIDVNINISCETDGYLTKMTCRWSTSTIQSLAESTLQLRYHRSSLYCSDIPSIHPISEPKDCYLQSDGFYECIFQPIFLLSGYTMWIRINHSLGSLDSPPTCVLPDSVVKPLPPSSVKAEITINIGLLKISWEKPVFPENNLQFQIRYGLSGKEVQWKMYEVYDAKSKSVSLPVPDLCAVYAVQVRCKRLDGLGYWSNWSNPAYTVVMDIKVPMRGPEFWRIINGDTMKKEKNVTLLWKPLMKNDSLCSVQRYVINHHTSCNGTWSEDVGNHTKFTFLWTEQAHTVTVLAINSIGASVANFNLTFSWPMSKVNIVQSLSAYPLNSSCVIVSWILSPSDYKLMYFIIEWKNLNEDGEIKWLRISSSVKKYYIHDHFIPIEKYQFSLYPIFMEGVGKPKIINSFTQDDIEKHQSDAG
Assay: phage antigen-binding ELISA

Binder	binding result
B1	binds
B2	binds
